Source: patent publication US20060257938A1, “Method of screening for drugs that block ligand binding to a lipid binding protein” (priority 2005, published 2006)

Key:
Format in all cases: binding
[1] = Probe fluorescence ratio response to palmitic acid relative to ADIFAB2; details: for DR/DR PA: response relative to ADIFAB2; for DR/DRAD2 PA: Table 3
How it was run: (§1)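 Fluorescently labeled rat intestinal FABP variants were read at two emission wavelengths, near the unbound maximum (about 420 to 480 nm) and the FFA-bound maximum (about 495 to 580 nm). R = Fλ1/Fλ2 after subtracting probe-free intensity; ΔR = R+agent − R0, normalized to ADIFAB2 (rI-FABP-L72A).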

[2] = Probe fluorescence ratio response to oleic acid relative to ADIFAB2; details: for DR/DR OA: response relative to ADIFAB2; for DR/DRAD2 OA: Table 3
How it was run: as §1

[3] = Probe fluorescence ratio response to linolenic acid relative to ADIFAB2; details: for DR/DR LNA: response relative to ADIFAB2; for DR/DRAD2 LNA: Table 3
How it was run: as §1

[4] = Probe fluorescence ratio response to arachidonic acid relative to ADIFAB2; details: for DR/DR AA: arachidonic acid, response relative to ADIFAB2; for DR/DRAD2 AA: Table 3, Arachidonic acid
How it was run: as §1

[5] = Probe fluorescence ratio response to linoleic acid relative to ADIFAB2; details: for DR/DR LA: response relative to ADIFAB2; for DR/DRAD2 LA: Table 3
How it was run: as §1

B1: 78V, 72A (protein, listed as Rattus norvegicus)
chain: AFDGTWKVDRNENYEKFMEKMGINVVKRKLGAHDNLKLTITQEGNKFTVKESSNFRNIDVVFELGVDFAYSAADGTEVTGTWTMEGNKLVGKFKRVDNGKELIAVREISGNELIQTYTYEGVEAKRIFKKE
modifications: PEPTIDE (1)...(131) wild-type rat intestinal fatty acid binding protein
DR/DR PA [1]: 0.615 | DR/DR OA [2]: 0.864 | DR/DR LNA [3]: 0.798 | DR/DR AA [4]: 1.093 | DR/DR LA [5]: 0.865

B2: A73I, L72A: FABP probe clone, substitutions A73I, L72A vs SEQ ID NO: 2 (protein, listed as Rattus norvegicus)
chain: AFDGTWKVDRNENYEKFMEKMGINVVKRKLGAHDNLKLTITQEGNKFTVKESSNFRNIDVVFELGVDFAYSAIDGTELTGTWTMEGNKLVGKFKRVDNGKELIAVREISGNELIQTYTYEGVEAKRIFKKE
modifications: PEPTIDE (1)...(131) wild-type rat intestinal fatty acid binding protein
DR/DRAD2 PA [1]: −0.04 | DR/DRAD2 OA [2]: −0.04 | DR/DRAD2 LNA [3]: 0.03 | DR/DRAD2 AA [4]: 0.38 | DR/DRAD2 LA [5]: −0.04

B3: 23Y, 72A (protein, listed as Rattus norvegicus)
chain: AFDGTWKVDRNENYEKFMEKMGYNVVKRKLGAHDNLKLTITQEGNKFTVKESSNFRNIDVVFELGVDFAYSAADGTELTGTWTMEGNKLVGKFKRVDNGKELIAVREISGNELIQTYTYEGVEAKRIFKKE
modifications: PEPTIDE (1)...(131) wild-type rat intestinal fatty acid binding protein
DR/DR PA [1]: 0.281 | DR/DR OA [2]: 0.412 | DR/DR LNA [3]: 0.443 | DR/DR AA [4]: 0.492 | DR/DR LA [5]: 0.442

B4: 21V, 72A (protein, listed as Rattus norvegicus)
chain: AFDGTWKVDRNENYEKFMEKVGINVVKRKLGAHDNLKLTITQEGNKFTVKESSNFRNIDVVFELGVDFAYSAADGTELTGTWTMEGNKLVGKFKRVDNGKELIAVREISGNELIQTYTYEGVEAKRIFKKE
modifications: PEPTIDE (1)...(131) wild-type rat intestinal fatty acid binding protein
DR/DR PA [1]: 0.462 | DR/DR OA [2]: 0.739 | DR/DR LNA [3]: 0.889 | DR/DR AA [4]: 0.939 | DR/DR LA [5]: 0.871

B5: 55Q, 72A (protein, listed as Rattus norvegicus)
chain: AFDGTWKVDRNENYEKFMEKMGINVVKRKLGAHDNLKLTITQEGNKFTVKESSNQRNIDVVFELGVDFAYSAADGTELTGTWTMEGNKLVGKFKRVDNGKELIAVREISGNELIQTYTYEGVEAKRIFKKE
modifications: PEPTIDE (1)...(131) wild-type rat intestinal fatty acid binding protein
DR/DR PA [1]: 0.428 | DR/DR OA [2]: 0.536 | DR/DR LNA [3]: 0.492 | DR/DR AA [4]: 0.600 | DR/DR LA [5]: 0.474

B6: 82V, 72A (protein, listed as Rattus norvegicus)
chain: AFDGTWKVDRNENYEKFMEKMGINVVKRKLGAHDNLKLTITQEGNKFTVKESSNFRNIDVVFELGVDFAYSAADGTELTGTVTMEGNKLVGKFKRVDNGKELIAVREISGNELIQTYTYEGVEAKRIFKKE
modifications: PEPTIDE (1)...(131) wild-type rat intestinal fatty acid binding protein
DR/DR PA [1]: 0.345 | DR/DR OA [2]: 0.461 | DR/DR LNA [3]: 0.456 | DR/DR AA [4]: 0.757 | DR/DR LA [5]: 0.519

B7: 104G, 72A (protein, listed as Rattus norvegicus)
chain: AFDGTWKVDRNENYEKFMEKMGINVVKRKLGAHDNLKLTITQEGNKFTVKESSNFRNIDVVFELGVDFAYSAADGTELTGTWTMEGNKLVGKFKRVDNGKELIGVREISGNELIQTYTYEGVEAKRIFKKE
modifications: PEPTIDE (1)...(131) wild-type rat intestinal fatty acid binding protein
DR/DR PA [1]: 0.650 | DR/DR OA [2]: 0.691 | DR/DR LNA [3]: 0.687 | DR/DR AA [4]: 0.866 | DR/DR LA [5]: 0.665

B8: 38I 72G (protein, listed as Rattus norvegicus)
chain: AFDGTWKVDRNENYEKFMEKMGINVVKRKLGAHDNLKITITQEGNKFTVKESSNFRNIDVVFELGVDFAYSGADGTELTGTWTMEGNKLVGKFKRVDNGKELIAVREISGNELIQTYTYEGVEAKRIFKKE
modifications: PEPTIDE (1)...(131) wild-type rat intestinal fatty acid binding protein
DR/DR PA [1]: 0.419 | DR/DR OA [2]: 0.861 | DR/DR LNA [3]: 0.701 | DR/DR AA [4]: 0.964 | DR/DR LA [5]: 0.772

B9: D74F, L72A: FABP probe clone, substitutions D74F, L72A vs SEQ ID NO: 2 (protein, listed as Rattus norvegicus)
chain: AFDGTWKVDRNENYEKFMEKMGINVVKRKLGAHDNLKLTITQEGNKFTVKESSNFRNIDVVFELGVDFAYSAAFGTELTGTWTMEGNKLVGKFKRVDNGKELIAVREISGNELIQTYTYEGVEAKRIFKKE
modifications: PEPTIDE (1)...(131) wild-type rat intestinal fatty acid binding protein
DR/DRAD2 PA [1]: 0.93 | DR/DRAD2 OA [2]: 0.51 | DR/DRAD2 LNA [3]: 1.04 | DR/DRAD2 AA [4]: 0.44 | DR/DRAD2 LA [5]: 0.67

B10: 115H, 72A (protein, listed as Rattus norvegicus)
chain: AFDGTWKVDRNENYEKFMEKMGINVVKRKLGAHDNLKLTITQEGNKFTVKESSNFRNIDVVFELGVDFAYSAADGTELTGTWTMEGNKLVGKFKRVDNGKELIAVREISGNELIHTYTYEGVEAKRIFKKE
modifications: PEPTIDE (1)...(131) wild-type rat intestinal fatty acid binding protein
DR/DR PA [1]: 0.514 | DR/DR OA [2]: 0.675 | DR/DR LNA [3]: 0.697 | DR/DR AA [4]: 0.891 | DR/DR LA [5]: 0.741

B11: 115N, 72A (protein, listed as Rattus norvegicus)
chain: AFDGTWKVDRNENYEKFMEKMGINVVKRKLGAHDNLKLTITQEGNKFTVKESSNFRNIDVVFELGVDFAYSAADGTELTGTWTMEGNKLVGKFKRVDNGKELIAVREISGNELINTYTYEGVEAKRIFKKE
modifications: PEPTIDE (1)...(131) wild-type rat intestinal fatty acid binding protein
DR/DR PA [1]: 0.558 | DR/DR OA [2]: 0.711 | DR/DR LNA [3]: 0.726 | DR/DR AA [4]: 0.918 | DR/DR LA [5]: 0.777

B12: 104F, 72A (protein, listed as Rattus norvegicus)
chain: AFDGTWKVDRNENYEKFMEKMGINVVKRKLGAHDNLKLTITQEGNKFTVKESSNFRNIDVVFELGVDFAYSAADGTELTGTWTMEGNKLVGKFKRVDNGKELIFVREISGNELIQTYTYEGVEAKRIFKKE
modifications: PEPTIDE (1)...(131) wild-type rat intestinal fatty acid binding protein
DR/DR PA [1]: 0.263 | DR/DR OA [2]: 0.462 | DR/DR LNA [3]: 0.436 | DR/DR AA [4]: 0.686 | DR/DR LA [5]: 0.486

B13: 55I, 72A (protein, listed as Rattus norvegicus)
chain: AFDGTWKVDRNENYEKFMEKMGINVVKRKLGAHDNLKLTITQEGNKFTVKESSNIRNIDVVFELGVDFAYSAADGTELTGTWTMEGNKLVGKFKRVDNGKELIAVREISGNELIQTYTYEGVEAKRIFKKE
modifications: PEPTIDE (1)...(131) wild-type rat intestinal fatty acid binding protein
DR/DR PA [1]: 0.774 | DR/DR OA [2]: 0.901 | DR/DR LNA [3]: 0.885 | DR/DR AA [4]: 1.079 | DR/DR LA [5]: 0.834

B14: 11V, 72A (protein, listed as Rattus norvegicus)
chain: AFDGTWKVDRVENYEKFMEKMGINVVKRKLGAHDNLKLTITQEGNKFTVKESSNFRNIDVVFELGVDFAYSAADGTELTGTWTMEGNKLVGKFKRVDNGKELIAVREISGNELIQTYTYEGVEAKRIFKKE
modifications: PEPTIDE (1)...(131) wild-type rat intestinal fatty acid binding protein
DR/DR PA [1]: 0.732 | DR/DR OA [2]: 0.552 | DR/DR LNA [3]: 0.763 | DR/DR AA [4]: 0.932 | DR/DR LA [5]: 0.825

B15: 11M, 72A (protein, listed as Rattus norvegicus)
chain: AFDGTWKVDRMENYEKFMEKMGINVVKRKLGAHDNLKLTITQEGNKFTVKESSNFRNIDVVFELGVDFAYSAADGTELTGTWTMEGNKLVGKFKRVDNGKELIAVREISGNELIQTYTYEGVEAKRIFKKE
modifications: PEPTIDE (1)...(131) wild-type rat intestinal fatty acid binding protein
DR/DR PA [1]: 0.543 | DR/DR OA [2]: 0.463 | DR/DR LNA [3]: 0.651 | DR/DR AA [4]: 0.697 | DR/DR LA [5]: 0.576

B16: 14L 72G (protein, listed as Rattus norvegicus)
chain: AFDGTWKVDRNENLEKFMEKMGINVVKRKLGAHDNLKLTITQEGNKFTVKESSNFRNIDVVFELGVDFAYSGADGTELTGTWTMEGNKLVGKFKRVDNGKELIAVREISGNELIQTYTYEGVEAKRIFKKE
modifications: PEPTIDE (1)...(131) wild-type rat intestinal fatty acid binding protein
DR/DR PA [1]: 0.334 | DR/DR OA [2]: 0.730 | DR/DR LNA [3]: 0.886 | DR/DR AA [4]: 0.873 | DR/DR LA [5]: 0.817

B17: 55V, 72A (protein, listed as Rattus norvegicus)
chain: AFDGTWKVDRNENYEKFMEKMGINVVKRKLGAHDNLKLTITQEGNKFTVKESSNVRNIDVVFELGVDFAYSAADGTELTGTWTMEGNKLVGKFKRVDNGKELIAVREISGNELIQTYTYEGVEAKRIFKKE
modifications: PEPTIDE (1)...(131) wild-type rat intestinal fatty acid binding protein
DR/DR PA [1]: 0.374 | DR/DR OA [2]: 0.468 | DR/DR LNA [3]: 0.477 | DR/DR AA [4]: 0.581 | DR/DR LA [5]: 0.432
